Literature values in paper PMC2994244.
Where two headings read alike, the source gives them in different places.

What was measured:
ACP (Escherichia coli) [1] = target: ACP (Escherichia coli) (UniProt P0A6A8)
ACP (Escherichia coli) [2] = target: ACP (Escherichia coli) (UniProt P0A6A8); remark: listed apart in the source

Chain of UniProt P0A6A8 (P0A6A8 2-78): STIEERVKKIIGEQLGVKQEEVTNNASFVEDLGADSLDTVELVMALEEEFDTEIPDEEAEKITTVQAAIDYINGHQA

| Kd (ACP (Escherichia coli) [1]) [µM] | Substance | Kd (ACP (Escherichia coli) [2]) [µM] |
| --- | --- | --- |
| 0.18 | KASI (from UniProt P0A953) | – |
| – | KASII (from UniProt P0AAI5) | 0.07 |
